These are literature values, as cited in PMC5808296.

Read-outs that look alike come from different tables or passages of the source.

Data set [1] concerns the target Aβ42 Aβ1-42 (Mus musculus) (UniProt P12023).
The target is the same in data set [2]. This is another data set of the same source.

Regarding C-FRHMTEQ-C peptide, in data set [1], the Kd was 0.545 nM.
Take C-IPLPFYN-C peptide: the Kd in data set [2] was 0.22 nM.
